Source: patent publication US20190062438A1 (CSL, published 2019)

Columns and labels:
[1] = molecular target: shCD131 alanine mutants of Ser102, Val104 and Arg364; experiment: SPR, Fab over captured mutant
shCD131 Y365A = molecular target: T1, shCD131 Y365A (human, UniProt P32927 17-438); experiment: SPR, Fab over captured mutant
T1 construct: C-terminal 6xHis
T1 sequence: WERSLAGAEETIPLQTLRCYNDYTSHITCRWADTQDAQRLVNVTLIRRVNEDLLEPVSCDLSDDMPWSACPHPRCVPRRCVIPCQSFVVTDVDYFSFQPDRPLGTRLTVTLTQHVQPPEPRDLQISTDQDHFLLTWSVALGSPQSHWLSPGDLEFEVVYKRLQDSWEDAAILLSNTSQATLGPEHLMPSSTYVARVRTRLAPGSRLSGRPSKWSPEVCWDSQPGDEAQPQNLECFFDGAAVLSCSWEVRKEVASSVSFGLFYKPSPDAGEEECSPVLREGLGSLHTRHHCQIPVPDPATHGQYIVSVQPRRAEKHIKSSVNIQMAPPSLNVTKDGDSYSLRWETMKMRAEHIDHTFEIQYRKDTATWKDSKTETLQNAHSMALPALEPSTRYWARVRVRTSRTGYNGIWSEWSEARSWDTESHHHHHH
Experimental: (§1) As shβc is a dimer, kinetics assays were performed with shβc captured on the sensor surface, and purified Fab injected as the analyte. Avidity effects were avoided by the use of Fab rather than whole IgG.
(§2) shCD131 was captured on spots 1 and 5 of each flow cell for 2 minutes at a concentration of 0.4 μg/ml. […] For some analysis purified Fab was injected over each flow cell for 3 minutes and dissociation was monitored for a further 10 minutes. Regeneration of the surface was performed after each cycle with a 40 second injection of 25 mM glycine, pH 2.0. The analysis was performed with Fabs at several concentrations between 100 and 0.31 nM, with each concentration analyzed twice and in random order. The analysis was performed at a flow rate of 30 μl/min in HBS-EP buffer (10 mM Hepes, 150 mM NaCl, 3 mM EDTA, 0.005% Tween 20, pH 7.4) at 37° C. Responses from spots 2 and 4 of each flow cell, (in which shβc was not captured, but otherwise treated identically), were subtracted from those of spots 1 and 5 respectively to produce reference subtracted data. Reference subtracted responses from a blank injection comprising buffer alone were subtracted from the resultant sensorgrams to produce double referenced data suitable for kinetic analysis. Double-referenced sensorgrams were fitted using non-linear regression to a model describing 1:1 kinetics, including a term for mass transport limitation. The Rₘₐₓ value was fitted locally to account for slight deviations in the level of sCD131 captured, with association rate (kₐ), dissociation rate (kd) and equilibrium dissociation constant (KD) fitted globally.
(§3) Mapping of the shCD131 epitope was performed by measurement of the affinity of Fabs for various alanine point mutants of shCD131 essentially as described above, with the following exceptions. Each shCD131 mutant was captured for 120 seconds at concentrations between 1 and 5 μg/ml. For kinetic analysis, purified recombinant Fabs were injected for 2 minutes, and dissociation was monitored for a further 2 minutes. […] Fab concentrations ranged from 16 μM to 3.9 nM in two-fold dilutions.

shCD131 F103A = molecular target: T2, shCD131 F103A (human, UniProt P32927 17-438); experiment: SPR, Fab over captured mutant
T2 construct: C-terminal 6xHis
T2 sequence: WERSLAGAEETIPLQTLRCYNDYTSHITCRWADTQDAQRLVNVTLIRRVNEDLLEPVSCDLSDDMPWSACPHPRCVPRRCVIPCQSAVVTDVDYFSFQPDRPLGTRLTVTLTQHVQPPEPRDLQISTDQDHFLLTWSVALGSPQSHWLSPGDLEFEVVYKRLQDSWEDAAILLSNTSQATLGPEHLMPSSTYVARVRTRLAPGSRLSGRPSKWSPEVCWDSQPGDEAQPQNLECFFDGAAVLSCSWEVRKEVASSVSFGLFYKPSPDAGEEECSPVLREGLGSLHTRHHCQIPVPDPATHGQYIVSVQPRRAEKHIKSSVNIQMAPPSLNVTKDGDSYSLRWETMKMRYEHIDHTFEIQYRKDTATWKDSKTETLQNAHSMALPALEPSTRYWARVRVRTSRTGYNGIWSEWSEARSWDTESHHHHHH
Experimental: as §1, §2, §3

shCD131 I338A = molecular target: T3, shCD131 I338A (human, UniProt P32927 17-438); experiment: SPR, Fab over captured mutant
T3 construct: C-terminal 6xHis; also called 1338A
T3 sequence: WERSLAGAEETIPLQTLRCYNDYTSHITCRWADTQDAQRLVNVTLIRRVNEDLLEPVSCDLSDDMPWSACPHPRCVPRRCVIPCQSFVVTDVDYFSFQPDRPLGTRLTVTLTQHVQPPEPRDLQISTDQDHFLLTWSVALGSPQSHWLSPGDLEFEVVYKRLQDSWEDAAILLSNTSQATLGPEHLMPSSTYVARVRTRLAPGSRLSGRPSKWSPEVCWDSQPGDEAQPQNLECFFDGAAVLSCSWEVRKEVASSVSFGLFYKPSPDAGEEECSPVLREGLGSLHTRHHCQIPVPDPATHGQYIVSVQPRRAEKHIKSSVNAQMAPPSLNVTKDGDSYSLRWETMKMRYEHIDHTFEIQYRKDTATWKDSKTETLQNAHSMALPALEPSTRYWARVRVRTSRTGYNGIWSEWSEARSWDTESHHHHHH
Experimental: as §1, §2, §3

[2] = molecular target: T4, soluble Homo sapiens CD131 comprising a C-terminal 6xHis tag (human, UniProt P32927 17-438); experiment: SPR, Fab over captured shCD131
T4 construct: truncated after Ser438, C-terminal 6xHis; also called shCD131; shβc
T4 sequence: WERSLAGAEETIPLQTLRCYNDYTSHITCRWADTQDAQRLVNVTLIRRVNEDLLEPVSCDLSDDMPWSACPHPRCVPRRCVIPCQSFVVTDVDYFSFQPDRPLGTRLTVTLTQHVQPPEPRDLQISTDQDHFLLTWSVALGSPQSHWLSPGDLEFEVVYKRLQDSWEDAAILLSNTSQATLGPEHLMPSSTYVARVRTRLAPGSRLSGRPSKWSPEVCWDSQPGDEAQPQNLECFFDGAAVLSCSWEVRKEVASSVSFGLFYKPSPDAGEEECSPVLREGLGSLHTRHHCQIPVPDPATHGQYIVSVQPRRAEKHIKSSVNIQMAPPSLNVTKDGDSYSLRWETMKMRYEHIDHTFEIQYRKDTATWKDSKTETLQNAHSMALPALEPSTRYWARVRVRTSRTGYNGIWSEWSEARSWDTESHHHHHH
Experimental: Binding kinetics were measured using SPR with a BIAcore™ A-100 instrument (GE Healthcare Life Sciences). An anti-C-terminal Hexa-His antibody (3H3) was immobilized on spots 1, 2, 4 and 5 of each flow cell of a CM-5 sensor chip (GE Healthcare Life Sciences) using amine-coupling chemistry (116). […] As shβc is a dimer, kinetics assays were performed with shβc captured on the sensor surface, and purified Fab injected as the analyte. Avidity effects were avoided by the use of Fab rather than whole IgG.
as §2

B1: 9A2 Fab (Fab, V domains shown)
VH: EVQLLESGGGLVQPGGSLRLSCAASGFTFSHYHMLWVRQAPGKGLEWVSSIRSSGGFTYYADSVKGRFTISRDNSKNTLYLQMNSLRAEDTAVYYCARFYDSFFDIWGQGTMVTVSS
VL: DIQMTQSPSSVSASVGDRVTITCRASQGISSWLAWYQQKPGKAPKLLIYAASSLQSGVPSRFSGSGSGTDFTLTISSLQPEDFATYYCQQANSFPITFGQGTRLEIKR
notes: also called recombinant Fab of 9A2
Q: How did the fold reduction of binding relative to WT shCD131 [1] turn out when B1 was run?
A: 3 to 7 fold

Q: Does B1 bind (shCD131 Y365A)?
A: no binding (tested: Fab up to 16 µM)

Q: Does B1 bind (shCD131 F103A)?
A: no binding (tested: Fab up to 16 µM)

Q: Does B1 bind (shCD131 I338A)?
A: no binding (tested: Fab up to 16 µM)

Q: What about the Kd [2] of the same binder?
A: 49 nM

Q: And the koff [2]?
A: 0.096 s⁻¹

Q: What about the kon [2] of the same binder?
A: 2e+06 M⁻¹ s⁻¹
